Assay: soluble on expression in E. coli; label from the status in PepcDB or PDB records
In the case of “GMENEENSAREQEADDFLHIASVKEDWGGDGRGRMNLSGRRTAIAKEYLPRQYQFFDTNTVMEKQGWRVRGMPDNIAPGSRRLLTWHDSGASTSRVVLPPKFEAPSGIFTADLEIFVIKGAIQLGEWQLNKHSYSFIPAGVRIGSWKVLGGEEAEILWMENGSVPLEYKYAQEDHPDARLSDFIPALDSKLLPWGKADTVQFVQANKKWLRKDINGGGVWLLAILPHFDNKYQMIQPYNEEGYCLTGYCDVGDYRIVKDHYWYCPSFSTLPRHITDDGGLFFVRVDRDLSKVATVLSYAPQDT”, the “soluble on expression in E. coli” value is reported as “soluble”. For “MYMRAGDGRVHGIYSSTDVANLILKTTGTALMDKKKLHKLLYYMQGWTLAALGRPAFANDLQAWVDGPVSVGMRRDTHYATCFEVANRPLSNPLAPQDRDLLALMYLIAPFYAQQQTQALVDSTHAEAPWLDARGGLPPPMPIPARRSLTTHCTATFHSTPASWV”, the “soluble on expression in E. coli” value was “not soluble”. For “MSEPLDLNQLAQKIKQWGLELGFQQVGITDTDLSESEPKLQAWLDKQYHGEMDWMARHGMLRARPHELLPGTLRVISVRMNYLPANAAFASTLKNPKLGYVSRYALGRDYHKLLRNRLKKLGEMIQQHCVSLNFRPFVDSAPILERPLAEKAGLGWTGKHSLILNREAGSFFFLGELLVDIPLPVDQPVEEGCGKCVACMTICPTGAIVEPYTVDARRCISYLTIELEGALPEELRPLMGNRIYGCDDCQLICPWNRYSQLTTEDDFSPRKPLHAPELIELFAWSEEKFLKVTEGSAIRRIGHLRWLRNIAVALGNAPWDETILTALESRKGEHPLLDEHIAWAIAQQIERRNACIVEVQLPKKQRLVRVIEKGLPRDA”, the “soluble on expression in E. coli” value was “not soluble”. In the case of “MTKKRVALIFGGNSSEHDVSKRSAQNFYNAIEATGKYEIIVFAIAQNGFFLDTESSKKILALEDEQPIVDAFMKTVDASDPLARIHALKSAGDFDIFFPVVHGNLGEDGTLQGLFKLLDKPYVGAPLRGHAVSFDKALTKELLTVNGIRNTKYIVVDPESANNWSWDKIVAELGNIVFVKAANQGSSVGISRVTNAEEYTEALSDSFQYDYKVLIEEAVNGARELEVGVIGNDQPLVSEIGAHTVPNQGSGDGWYDYNNKFVDNSAVHFQIPAQLSPEVTKEVKQMALDAYKVLNLRGEARMDFLLDENNVPYLGEPNTLPGFTNMSLFKRLWDYSDINNAKLVDMLIDYGFEDFAQNKKLSYSFVSLGEEKIGKFN”, the “soluble on expression in E. coli” value is reported as “soluble”. For “MINSPRVCIQVQSVYIEAQSSPDNERYVFAYTVTIRNLGRAPVQLLGRYWLITNGNGRETEVQGEGVVGVQPLIAPGEEYQYTSGAIIETPLGTMQGHYEMIDENGVPFSIDIPVFRLAVPTLIHMGHHHHHHSH”, the “soluble on expression in E. coli” value was “not soluble”. In the case of “MFPRKELLKDGSLLLIREASIWDARRIVEYLKEVTSETDFLITRPDEVYDVSTERNYIRMYRSNPGKLMIVGEINREIVSLLTFTGFGRKRTKHVGEIGISVKKRYWNIGIGTRMITSAIEWARRNGFIRIQLEVLKSNERAISLYRKLGFELEGIKRKAVRRDDGSFEDVLVMALLLD”, the “soluble on expression in E. coli” value is reported as “soluble”. For “MAHHHHHHMFPGEQDITGSQLAEYVREQVQASANLVVYVEDTHCDVDTIGLRRLHATIGGTAVFSGYDLYRRSKYEKVEQGLDELWTSNVVLEASAIGSLSALCDNVRMVRRHEGCTIALAPQSLMHNVAFAVHLAVGVGARFLCVGGLMDVVQCEVVSQYLYVQDELEQSRLLLEEAPKPPCAVLPDAPTDTVPEIKRRLDKKKRKK”, the “soluble on expression in E. coli” value was “not soluble”. For “MCGRFVITSAPAAIRQLFGYADQPNFPSRYNIAPTQPVPVVIVDEGARRFRLMRWGLIPSWVKDPRMFSLLINARADTIQDKPAFRNAFRRRRCLVPADGYYEWKAGGSRKQPYFIHPAGGGPIGFAALWETWTGPNGEELDTVAIVTTAARGGLADLHDRVPVTIAPHHFARWLETDETDTEAVMALLGPPGEGEFVWHPVSTAVNRTANDNPQLILPIAAEEVEAPPPAVAKPAPPKRAARPKISADDSGQGSLFLEHHHHHH”, the “soluble on expression in E. coli” value was “soluble”. With “MGSDKIHHHHHHMKHAFETLVGEVHAALQAGEQFTLGYSAEQSQFVRFNHAKVRQAGEVSQASAQLRLVRDGRQAEQQVTLSGDVQLDRQRLNVALEQLRQTLPLLALDPYLRLDENAWHSHSLQEPPLPALNEVLALLEREAGDLDLVGIYAAGPVCRGFASSFGAFGWHQANSFNVDWSLFHDNGQAVKANYAGQAWSADDFTARLRQAREQLGFLGRPAVTLKPGTYRAYLAPAAMDEVAGMLCWGGFSAQALATGNSALQRLYNGDARLSPLVSFTEQVSGSLSPAFSDEGAPRLDVPLIQQGEARQRLISARSAAEFELQANGADGYESPCALSLAPGNLASAQILERLGTGLYISNLWYLNYSDLPAARMTGLTRFATFWVEDGQIQGPVSTMRFDDSLYSLLGSQLEDLTQEREMILSTSTYGQRSTGSSHLPGALVKGLTLTL” the “soluble on expression in E. coli” value was “not soluble”. In the case of “GSHVFKSRLQEYAQKYKLPTPVYEIVKEGPSHKSLFQSTVILDGVRYNSLPGFFNRKAAEQSAAEVALRELAK”, the “soluble on expression in E. coli” value is reported as “soluble”. For “MSLITQRSSMIGVVTAGFENPLRARLLSDLMAVLGQRAFTPLVTNADDPQQLRQALERLLSYRVAGLVMTSASPPLSVARQYLAHRIPVVMINREANLAGADVVVSDNAAGAAEAAQRLVHAGARRLAFVGPHTASFSARSRADAFAHALQRGNMSGATLASVIDTASDTHACGLDAAQQLFAAGHRPDGVFCSSDLLALGVIDAARAAFGLRVPDDVRVIGFDDIPAAAYHAYRLTTLRQDTQGLAHAAVDLLADRISAFDGASRTRVVPVTHVVRHSCAEGHHHHHH”, the “soluble on expression in E. coli” value was “soluble”. For “MDSSNPSSLPLEKSSGNVQKGKLLNIWSRCIAQPSSFLGSSISRFWANADIKNRVCSAAIGRVNFVSKCLKKFPEVSLSCNISASLSLNTGKEKVKNEDLEKQERCHKVAMIEYEIQNLERQLKKRQF”, the “soluble on expression in E. coli” value was “not soluble”. In the case of “QTLRALAERAARIEQDPAAGDYMSALRELPFIRELMAGRLPLQWAPARMVSDDPAKGLGKAPPAGLLTQQLRNILGEPRRTLDLVSPYFVPAEAGTQAFAALARGGAQVRVLTNALEATDVAVVHSGYAKRRKALLQAGVRLYEMRRSYAGPKPQGRGRFGSSGSSLHAKTFGVDGERVFIGSFNFDPRSANLNTELGFVIESPDMARHIAATFDQDIPAATYEVRLDDDGSLYWLE”, the “soluble on expression in E. coli” value is reported as “not soluble”. For “MAHHHHHHMGTLEAQTQGPGSMTYETILVERDQRVGIITLNRPQALNALNSQVMNEVTSAATELDDDPDIGAIIITGSAKAFAAGADIKEMADLTFADAFTADFFATWGKLAAVRTPTIAAVAGYALGGGCELAMMCDVLIAADTAKFGQPEIKLGVLPGMGGSQRLTRAIGKAKAMDLILTGRTMDAAEAERSGLVSRVVPADDLLTEARATATTISQMSASAARMAKEAVNRAFESSLSEGLLYERRLFHSAFATEDQSEGMAAFIEKRAPQFTHR”, the “soluble on expression in E. coli” value was “soluble”. With “GPGSMTVRRMFCFLLPPPSHHRLSRSSLAHAHLPHIRMSAHFAQCRSTHVHTYTHTHVHTHDTLARAACRLCTSSPPVRAREMALLAPKALHKRVKGTNVEVRKEVTDDNTDAQLALLYSIHADDETELRWLHNTLRPERNLVHPSDAFLHGIKALHPAAVFNTFDVKKAKLRRLTKYEKDKETAMKRRKKEVAPTAAYKAAVNPHKTPRTGGAAPADEVRVLSRGMNKAQKARSRTRTAHKSGKVVNGAEAPKGFFTKWKKRKLEKIGRGL” the “soluble on expression in E. coli” value was “soluble”. With “MESLNEYMDKIINRLKAVNEKDELVDEGMRKLQKCQEKIMKTRIDAQKHIDERHEQQSFEQQLLNKNMFETEQLEEKLKRLDDENKIGNEREFNKKLEAISAKWTDDVNLLKTTPNEPNDGNRKKLSNLSNILV” the “soluble on expression in E. coli” value was “not soluble”. For “MGSDKIHHHHHHMIKNAVKKIIDMEWFARMMEVLDHRSDNRMTELGMLSQAFEFIKINEVCGDYLEFGLWRGKTFGYAHRMKHRYRRQDMKLWGFDSFQGLPDTGAHPDNIWYKGQFACSRPEFESILKSRGIRSCEYELVEGFYRESLNDATRRRLAGRKAAIVYIDCDLYDSTVEVLDFIQPYLVNGSIVCFDDFYNYKADPEQGEQKALSDFLRKESGICFIPYMAYAPLGKSFICRRT”, the “soluble on expression in E. coli” value was “not soluble”. With “MGSDKIHHHHHHMDSVSPELISNNQGYDRSHKQRLECLICNYHVDLNDKSAFSTFFCNVRAFRDEKFPIWRCPTCQTIHCLDVVDIDSYYAKYPFAEAKLTLPFRLCYQNLCQKMIEHGFSKTHSFLDYGCGNGLVVQYLRENGFANAYGYDPYAPKESFGDATVLQRGPFDYILLQDIIEHVEDPHALLSKLDSLLAPGGYLLLGTPNATNIDINRPELSNYYNAVHVPYHIHIYTREVVESLGKQQGWEVVKFFNRGYDDTRWFGLNTRTWNEYQSISDGTFDVIFEEINIWQALKSYRFLFYAFFGYWLSLRTDMTIMFRKKITD” the “soluble on expression in E. coli” value was “not soluble”. For “MISIIIPAFNEERRIGRTLEKISSTLPNAEIVVVFDGHDNTPEVVKKFPVKLLISESRLGKGGAIKRGINESNFQRVLLLDADFPITEEELDKILSTDADLVIPKRKIVGMPLKRKFLHKGFIIITKILFPSLAKFSDFQAGVKLVNREKVLDILDELIINDFLFDVNLIYGFKRRHYKVKEVEINYIHDESDSKISKKLIKVIILMFLSLIKLRVYYSPFRKILYTKTYLKAQDYILRKLRLEHHHHHH”, the “soluble on expression in E. coli” value was “not soluble”. In the case of “MKTQRIIHPNIDIRKFPEVNTDFSMTDISMGDLHANALLFLNILVRQGIIAISPENYAKFAEIYTLPELQADYWGTEAPVFSAENKQERLEEIKKQYNALIAQIKIINTKKLIRLIGDELVDRGVIDYFILKLLQALYDQGADFEILLSNHGIEFVEACELFKENGNKLVAKRLGNIQHGNSFHALQEAIAAGAISNEEVLNIYHQVYKKHLKIISYSLDPDANEIKVFSHAGIGLNHIRGLARKFKVPYSEESAVDLAKTIDAINKKFAEKASSGEIHTLYTHDMMYRGYAGEHLNSTDEVVAATVWGREYGDLIRTSKKFKITFIHGHDSYDPEKVEHVTLNNQLGQFQNNVGDLYLYATNGMRAVPTQYLNPDKKIQGSREKDRPDKPNDYVVKIHHTKPSFFKTSNPKITFPDSYKRIWDSADGDSNITKIKALLKDYTKEDSILGSFWGLIFTLHWGRHHVKSVHQIAQTKYTSVEAILSDLKALKPREGGSLDKRIKFIELQIIAQRCDSPEPQFNLK”, the “soluble on expression in E. coli” value is reported as “not soluble”. With “ATALAGSNGVCIAYYITDGRNPTFKLKDIPDKVDMVILFGLKYWSLQDTTKLPGGTGMMGSFKSYKDLDTQIRSLQSRGIKVLQNIDDDVSWQSSKPGGFASAAAYGDAIKSIVIDKWKLDGISLDIEHSGAKPNPIPTFPGYAATGYNGWYSGSMAATPAFLNVISELTKYFGTTAPNNKQLQIASGIDVYAWNKIMENFRNNFNYIQLQSYGANVSRTQLMMNYATGTNKIPASKMVFGAYAEGGTNQANDVEVAKWTPTQGAKGGMMIYTYNSNVSYANAVRDAVKN” the “soluble on expression in E. coli” value was “soluble”.
